Values of other authors, collected in article PMC2660313.
pKd: −log10 of the molar value.

Target: Dystrophin WW domain+EF-hand (Drosophila melanogaster) (UniProt Q9VDW6)
Sequence (Q9VDW6 2840-3106): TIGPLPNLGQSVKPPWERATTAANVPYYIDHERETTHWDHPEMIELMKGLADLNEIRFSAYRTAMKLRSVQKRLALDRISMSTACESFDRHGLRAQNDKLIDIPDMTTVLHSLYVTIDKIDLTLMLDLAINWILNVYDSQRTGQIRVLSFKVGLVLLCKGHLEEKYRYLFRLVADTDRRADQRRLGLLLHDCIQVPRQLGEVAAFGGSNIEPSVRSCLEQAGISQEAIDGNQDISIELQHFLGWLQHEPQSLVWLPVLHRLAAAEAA

In the case of “p53 peptide (negative control) (from UniProt P04637)”, the pKd is given as 3.61.
